Measured values published in US20060198894A1, “Stabilized, solid-state polypeptide particles” (priority 2002, published 2006).
Where no end group is shown, it is not given here.

Experiments:
Type in all cases: physicochemical
[1] = Stability of solid-state PACAP particles stored at 60° C. for two months, RP-HPLC (recovery / total degradation)
Method: (§1) The effect of pH on the stability of PACAP molecules over time was evaluated. In order to make such an evaluation, PACAP raw material was first dissolved in H2O in three different solutions, with the first solution having a pH of 2, the second solution having a pH of 4, and the third solution having a pH of 6. The pH of each solution was adjusted to the desired value using diluted HCl. Each of the three solutions was placed in lyophilization vials, and solid-state PACAP particles were produced from each of the three solutions through the lyophilization process already described herein. Particles from each of the three solutions were then stored for two months at 60° C., and the stability of the PACAP included in the solid-state particles was thereafter evaluated using RP-HPLC and SEC.
(§2) Solid-state PACAP particles were prepared from each of the eight solutions through lyophilization, as has already been described, and solid-state PACAP particles produced from each of the eight solutions were then stored at 60° C. for two months. After exposing the various solid-state PACAP particles to a temperature of 60° C. over two months, the stability of the PACAP included in various particles was evaluated using RP HPLC and SEC processes.
PACAP particles containing histidine buffer (Sigma) and PACAP particles containing histidine buffer in combination with calcium chloride (CaCl2, J T Baker), sucrose and sodium dodecyl sulfate (SDS, Pierce) were prepared and the stabilization of PACAP provided by such particles was evaluated. To prepare the PACAP particles evaluated, six different aqueous solutions were prepared. Each solution included a desired amount of PACAP dissolved therein, and the pH of each of the six solutions prepared was adjusted to 6 by the addition of diluted HCl. The first aqueous solution was prepared without additives (histidine buffer, CaCl2, sucrose, or SDS). The second aqueous solution was prepared with a 10 mM concentration of histidine buffer. The third aqueous solution was formulated with a 10 mM concentration of histidine buffer as well as a 10 mM concentration of CaCl2. The fourth aqueous solution was formulated with a 10 mM concentration of histidine buffer and included sucrose at a 0.5/1 weight ratio (sucrose/PACAP) relative to PACAP. […] The PACAP particles produced from each solution were then stored at 60° C. for two months, and the stability of the PACAP contained within the various different particles was evaluated using RP-HPLC and SEC processes after such storage. […]
To evaluate the stabilizing effect of CaCl2 in PACAP particles prepared at acidic and near neutral pH, four different types of particles were formulated, stored at 60° C. for two months, and then analyzed for PACAP degradation. […]

[2] = Aggregation / dimer formation in solid-state PACAP particles stored at 60° C. for two months, SEC; details: for dimer formation: two months of storage at 60° C.
Method: as §1, §2
PACAP particles containing histidine buffer (Sigma) and PACAP particles containing histidine buffer in combination with calcium chloride (CaCl2, J T Baker), sucrose and sodium dodecyl sulfate (SDS, Pierce) were prepared and the stabilization of PACAP provided by such particles was evaluated. To prepare the PACAP particles evaluated, six different aqueous solutions were prepared. Each solution included a desired amount of PACAP dissolved therein, and the pH of each of the six solutions prepared was adjusted to 6 by the addition of diluted HCl. The first aqueous solution was prepared without additives (histidine buffer, CaCl2, sucrose, or SDS). The second aqueous solution was prepared with a 10 mM concentration of histidine buffer. The third aqueous solution was formulated with a 10 mM concentration of histidine buffer as well as a 10 mM concentration of CaCl2. The fourth aqueous solution was formulated with a 10 mM concentration of histidine buffer and included sucrose at a 0.5/1 weight ratio (sucrose/PACAP) relative to PACAP. The fifth aqueous solution was prepared with a 10 mM concentration of histidine buffer, a 10 mM concentration of CaCl2, and an amount of sucrose providing a 0.5/1 weight ratio (sucrose/PACAP) relative to PACAP. The sixth aqueous solution was formulated with a 10 mM concentration of histidine buffer and 0.02 wt % SDS. Solid-state PACAP particles were then produced from each of the six solutions using the lyophilization process already described herein. The PACAP particles produced from each solution were then stored at 60° C. for two months, and the stability of the PACAP contained within the various different particles was evaluated using RP-HPLC and SEC processes after such storage. […] In addition, sucrose, CaCl2 and SDS further stabilized the peptide, providing roughly 14 fold to 20 fold decreases in aggregate formation.
To evaluate the stabilizing effect of CaCl2 in PACAP particles prepared at acidic and near neutral pH, four different types of particles were formulated, stored at 60° C. for two months, and then analyzed for PACAP degradation. The four different particle formulations were prepared from four different aqueous solutions. Each of the four solutions included a desired amount of PACAP dissolved therein and the pH of each solution was adjusted to the desired level using diluted HCl. The first aqueous solution was formulated without additives (histidine or CaCl2), and the pH of the first solution was adjusted to 2. The second aqueous solution was formulated with a 10 mM concentration of CaCl2, and the pH of the second solution was adjusted to 2. […]

[3] = Stability of PACAP suspended in suspension vehicles at elevated temperature, RP-HPLC and SEC
Source text: Due to the nature of the suspension vehicles used in implantable drug delivery systems, mixing of the suspension formulation bulk and subsequent loading of the suspension formulation into the implantable systems are often conducted at elevated temperatures. To evaluate the stability of PACAP analog (or simply “PACAP”) suspended in various suspension vehicles at elevated temperatures, unprotected, lyophilized PACAP was suspended in four different suspension vehicles (LL/GML/PVP, BA/PVP, EHL/PVP, and PEG/PVP). To suspend the PACAP into the suspension vehicles 3.3 mg PACAP acetate was manually mixed into each of the different suspensions to achieve a PACAP content of approximately 3%. The stability of the PACAP suspension formulations was then evaluated after incubation at 65° C. for four hours.
The PACAP suspensions were then further incubated at 37° C. and 65° C. an additional 17 days. […] (Table 3). […] In addition, other chemical degradation contributed to the loss of lyophilized PACAP.

[4] = Total degradation of lyophilized PACAP with excipients stored at 2-8, 40 and 60° C. up to 3 months, RP-HPLC
Method: (§3) The preliminary findings from the processing study led to the evaluation of the stabilization effect of sugar (sucrose) and nonionic surfactant (Tween 80) on PACAP lyophiles and suspensions. In order to carry out the evaluation, samples were prepared with PACAP in 10 mM NH4OAc (pH6.4) at 3 levels of Tween 80 (0, 0.05, 0.2 wt %) and sucrose (0, 0.5/1, 1/1, w/w). A solution of PACAP in 10 mM of histidine (pH 6.4) and sodium succinate (pH 5.6) was also prepared. Each of the PACAP solutions were lyophilized to obtain reconstituted, solid-state PACAP particles, and individual vials were provided 3.3 mg samples of the material reconstituted from each of the solutions, with the samples containing (1) no additive, (2) 0.2 wt % Tween 80, (3) 0.2 wt % Tween 80+0.5:1, w/w sucrose, and (4) 1:1, w/w sucrose. The various 3.3 mg samples were manually mixed with LL/GML/PVP and BA/PVP to provide suspension formulations having about 3% PACAP content, and the suspension formulations were subjected to 4 hours of incubation at 65° C. After the initial incubation period, the various suspension formulations were stored as described below and evaluated by RP-HPLC and SEC.
(§4) Solid-state PACAP particles were prepared via a lyophilization process (FTS Duro stop) from three different polypeptide solutions prepared in NH4OAc buffer at pH6. Each of the three different solutions contained a different amount of sucrose, with the first containing no sucrose, the second containing a weight ratio of sucrose to PACAP of 0.5/1, and the third containing a weight ratio of sucrose to PACAP 1/1. Solid-state PACAP particles prepared from each of the three solutions were stored at control temperatures ranging from 2° C. to 8° C., a temperature approximating physiologic temperature (40° C.), and a temperature exceeding physiologic temperature (60° C.). The stability of the PACAP contained within each group of solid-state PACAP particles was assessed at 24 days and 3 months. To assess PACAP stability within each group of particles, the particles were reconstituted in water and analyzed by reversed-phase RP-HPLC (acetonitrile gradient elution with mobile phase containing 0.1% trifluoroacetic acid, and a UV detection at 214 nm) and size exclusion HPLC (SEC, isocratic elution, 30% acetonitrile mixed with 70% of aqueous solution containing 0.1% trifluoroacetic acid and 200 mM of sodium chloride, and a UV detection at 220 nm).

[5] = Aggregation of lyophilized PACAP and PACAP suspensions with excipients stored at 2-8, 40 and 60° C. up to 3 months, SEC
Method: as §3, §4

[6] = Example 2 lyophilized formulations, except samples containing 1:1 w/w sucrose
[7] = lyophilized PACAP, ammonium acetate app. pH 6.4, 40° C. for 3 months (FIG. 1)

PACAP analog: synthetic PACAP-R3 agonist analog manufactured by Bayer; 31 amino acid sequence HSDAVFTDNYTRLRKQVAAKKYLQSIKNKRY (SEQ. I.D. NO. 1) (HSDAVFTDNYTRLRKQVAAKKYLQSIKNKRY; ends and bridges not checked)
effect of acidic pH on stability ([1]; particles lyophilized at pH 2, 4, 6 (HCl), two months at 60° C. (FIG. 9)): greatly improved stability
effect of trehalose and methyl MP on stability ([1]; particles prepared at pH2, relative to pH2 without stabilizing sugar, 60° C. for two months): additive stability
effect of sucrose on stability ([1]; particles prepared at pH2 with sucrose, 60° C. for two months): significant destabilizing effect
effect of CaCl2 on stability ([1]; particles with 10 mM CaCl2 at both pH 2 and 6, 60° C. for two months): further improved the stability
dimer formation ([2]; particles at acidic pH with Ca2+/PACAP analog 4/1 molar ratio): 0.8%
dimer formation ([2]; particles at acidic pH with trehalose/PACAP analog 0.55/1 w/w): 0.7%
decrease in aggregate formation ([2]; particles from pH 6 solution with 10 mM histidine buffer vs no additives, 60° C. for two months): roughly 6 fold
dimer formation ([2]; particles lyophilized from stabilizing solution of apparent pH 2 (diluted HCl), no excipient): 1.1%
improvement in preventing aggregate formation ([2]; particles prepared at pH 6 with sucrose (7.3 molar equivalent), 60° C. for two months): ~6 fold
improvement in preventing aggregate formation ([2]; particles prepared at pH 6 with trehalose (7.3 molar equivalent), 60° C. for two months): ~4 fold
stability of PACAP suspensions ([3]; further incubated at 37° C. an additional 17 days): marginal stability loss
stability of PACAP suspensions ([3]; further incubated at 65° C. an additional 17 days): relatively more aggressive degradation
stability of PACAP suspension formulations ([3]; unprotected lyophilized PACAP, about 3%, in LL/GML/PVP, BA/PVP, EHL/PVP, PEG/PVP, 65° C. for four hours): stable
rate of total degradation at 60° C. relative to 40° C. [4, 6]: about 5 times
rate of total degradation (RP HPLC) at 60° C. relative to 40° C. ([4]; Example 3, NH4OAc buffer pH6, except particles with PACAP to sucrose weight ratio of 1/1): about 5 times
total rate of degradation at 60° C. relative to 40° C. ([4]; PACAP analog contained within particles): approximately five times higher
time stable ([4]; lyophilized PACAP without a stabilizer, at 4° C.): at least 3 months
estimated total degradation ([4]; lyophilized PACAP, apparent pH 6.4 in ammonium acetate, equal amount of sucrose (w/w), in 6 months at 40° C.): 8.4%
rate of aggregation at 60° C. relative to 40° C. [5, 6]: approximately 10 times
rate of aggregation (SEC) at 60° C. relative to 40° C. ([5]; Example 3, NH4OAc buffer pH6, sucrose 0, 0.5/1, 1/1, all formulations tested): 10 times
effect of sucrose on aggregate formation in suspensions ([5]; PACAP suspensions in BA/PVP and LL/GML/PVP, 40° C.): suppressed aggregate formation
effect of Tween 80 on aggregation [5, 7]: no added effect
effect of sucrose on aggregation [5, 7]: suppressed PACAP aggregation
effect of histidine and sodium succinate on aggregate formation ([5]; lyophilized formulations, 40° and 60° C. over 3 months): better stabilizers than ammonium acetate
rate of aggregation or dimerization at 60° C. relative to 40° C. ([5]; solid-state PACAP particles): ten times higher
